Numbering of substitutions follows the chain as printed.
B1: BI-764532 (bispecific antibody, human IgG1, kappa, lambda, L234A L235A)
chain 1: DIQMTQSPSAMSASVGDRVTITCRASQGISNYLVWFQQKPGKAPKRLIYAVSSLYSGVPSRFSGSGSGTEFTLTISSLQPEDFATYYCLQHDSYPYTFGQGTKLEIKRTVAAPSVFIFPPSDEQLKSGTASVVCLLNNFYPREAKVQWKVDNALQSGNSQESVTEQDSKDSTYSLSSTLTLSKADYEKHKVYACEVTHQGLSSPVTKSFNRGECGGGGSEGKSSGSGSESKSTEGKSSGSGSESKSTGGGGSQVQLVQSGAEVKKPGASVKVSCKASGYTFTSYYVHWVRQAPGQGLEWMVIINPGGGTTSYAQKFLGRVTMTRDTSTNTVYMELKSLRSEDTAVYYCARGEAVTGNYFYYGMDVWGQGTTVTVSSASTKGPSVFPLAPSSKSTSGGTAALGCLVKDYFPEPVTVSWNSGALTSGVHTFPAVLQSSGLYSLSSVVTVPSSSLGTQTYICNVNHKPSNTKVDKRVEPKSCDKTHTCPPCPAPEAAGGPSVFLFPPKPKDTLMISRTPEVTCVVVDVSHEDPEVKFNWYVDGVEVHNAKTKPREEQYNSTYRVVSVLTVLHQDWLNGKEYKCKVSNKALPAPIEKTISKAKGQPREPQVYTLPPSREEMTKNQVSLWCLVKGFYPSDIAVEWESNGQPENNYKTTPPVLDSDGSFFLYSKLTVDKSRWQQGNVFSCSVMHEALHNHYTQKSLSLSPG
chain 2: EAVVTQEPSLTVSPGGTVTLTCRSSTGAVTTSNYANWVQEKPGQLPRGLIGGTNKRAPWVPARFSGSLLGGKAALTLSGAQPEDEAEYFCALWYSNLWVFGGGTKLTVLGQPKAAPSVTLFPPSSEELQANKATLVCLISDFYPGAVKVAWKADGSPVNTGVETTTPSKQSNNKYAASSYLSLTPEQWKSHRSYSCQVTHEGSTVEKTVAPAECSGGGGSEGKSSGSGSESKSTEGKSSGSGSESKSTGGGGSEVQLVESGGGLVQPGGSLKLSCAASGFTFNTYAMNWVRQAPGKGLEWVARIRSKYNNYATYYADSVKDRFTISRDDSKNTAYLQMNNLKTEDTAVYYCVRHGNFGNSYVSWFAYWGQGTLVTVSAASTKGPSVFPLAPSSKSTSGGTAALGCLVKDYFPEPVTVSWNSGALTSGVHTFPAVLQSSGLYSLSSVVTVPSSSLGTQTYICNVNHKPSNTKVDKRVEPKSCDKTHTCPPCPAPEAAGGPSVFLFPPKPKDTLMISRTPEVTCVVVDVSHEDPEVKFNWYVDGVEVHNAKTKPREEQYNSTYRVVSVLTVLHQDWLNGKEYKCKVSNKALPAPIEKTISKAKGQPREPQVYTLPPSREEMTKNQVSLSCAVKGFYPSDIAVEWESNGQPENNYKTTPPVLDSDGSFFLVSKLTVDKSRWQQGNVFSCSVMHEALHNRFTQKSLSLSPG
B2: HJ-6 (bispecific antibody)
chain 1: not shown
chain 2: DIQMTQSPSSVSASVGDRVTITCRASQDIANYLSWYQQKPGKSPKLLIYGTSNLEVGVPSRFSGSRSGTDFTLTISSLQPEDFATYYCLQDKEFPRTFGGGTKVEIKGGGGSSGAPRFLTCPKASVVSVGKDATLSSQIVGNPFPQVSWEKDKQPVTAGVRFRLAQDGDLYRLKILDLQLSDSGQYVSRARNAHGEAFACLGLQVDAEA
chain 3: EVQLVQSGAEVKKPGSSVKVSCKASGYTFSNYLIEWVRQAPGQGLEWIGVIDPGVGDTNYNENFKGRATLTADKSTSTAYIELSSLRSEDTAVYYCAREDNTGTAFDYWGQGTTVTVSSASTKGPSVFPLAPSSKSTSGGTAALGCLVKDYFPEPVTVSWNSGALTSGVHTFPAVLQSSGLYSLSSVVTVPSSSLGTQTYICNVNHKPSNTKVDKKVEPKSCDKTHTCPPCPAPEAAGGPSVFLFPPKPKDTLMISRTPEVTCVVVDVSHEDPEVKFNWYVDGVEVHNAKTKPREEQYNSTYRVVSVLTVLHQDWLNGKEYKCKVSNKALPAPIEKTISKAKGQPREPQVCTLPPSREEMTKNQVSLSCAVKGFYPSDIAVEWESNGQPENNYKTTPPVLDSDGSFFLVSKLTVDKSRWQQGNVFSCSVMHEALHNHYTQKSLSLSPGK
chain 4: SIVMTQTPLSLSVTPGQPASISCKASQSVSSDVTWYLQKPGQSPQLLIYYVSEHYTGVPDRFSGSGYGTDFTLKISRVEAEDVGVYYCQQHHRFPLTFGQGTKLEIKRTVAAPSVFIFPPSDEQLKSGTASVVCLLNNFYPREAKVQWKVDNALQSGNSQESVTEQDSKDSTYSLSSTLTLSKADYEKHKVYACEVTHQGLSSPVTKSFNRGEC
B3: HJ-11 (bispecific antibody)
chain 1: not shown
chain 2: B2 chain 2 with G108R, G109T, G110V, G111A, A115C, C121R, S137C, S188C
chain 3: B2 chain 3
chain 4: B2 chain 4
B4: HJ-9 (bispecific antibody)
chain 1: not shown
chain 2: B2 chain 2 with G108R, G109T, G110V, G111A
chain 3: B2 chain 3
chain 4: B2 chain 4
B5: HJ-8 (bispecific antibody)
chain 1: not shown
chain 2: B2 chain 2 with G108R, G109T, G110V, G111A, C121R
chain 3: B2 chain 3
chain 4: B2 chain 4
B6: HJ-7 (bispecific antibody)
chain 1: not shown
chain 2: B2 chain 2 with C121R, S137C, S188C
chain 3: B2 chain 3
chain 4: B2 chain 4
B7: HJ-10 (bispecific antibody)
chain 1: not shown
chain 2: B2 chain 2 with G108R, G109T, G110V, G111A, C121R, S137C, S188C
chain 3: B2 chain 3
chain 4: B2 chain 4
B8: mAb98 (antibody, V domains shown)
VH: EVQLVESGGGLVKPGGSLKLSCAASGFTFSDYGIHWVRQAPEKGLEWVAYISSGGYTIYYADTVKGRFTISRDNAKNTLFLQMTSLRSEDTAMYYCARGDYDDIFYTMDYWGQGTSVTVSS
VL: DIQMTQTTSSLSASLGDRVTISCRASRDITKFLNWYQQKPDGTVKLLIYYTSRLHSGVPSRFSGSGSGTDYSLTISNLDQEDIATYFCQQGNTLPWTFGGGTKLDIK
notes: murine hybridoma antibody (culture supernatant)
B9: mAb110 (antibody, V domains shown)
VH: EVQLQQSGPVLVKPGASVKMSCKTSGYTFTDYYMNWVKQSHGKSLEWIGIINPYNGGTSYTQKFKGKATLTVDKSSSTAYMELNSLTSEDSTVYFCARHFYDSSYLTYSTMDYWGQGTSVTVSS
VL: NIVMTQSPKSMSMSVGERVTLSCKASENVGIFVSWYQQKPKQSPKLLIYGASNRYTGVPDRFTGSGSATDFTLTISSVQAEDLADYYCGQSHSYPLTFGTGTKLELK
notes: as for B8
B10: mAb6 (antibody, V domains shown)
VH: EVQLQQSGPVLVKPGASVKMSCKASGYTFTDYYMNWVKQSHGKSLEWIGIINPYSGVTIYNHKFKGKATLTVDKSSNTAYMELNSLTSEDSAVYYCARQDSLLDYAMDYWGQGTSVTVSS
VL: DILMTQSPSSMSVSLGDTVSITCHASQGISGNMGWLQQKPGKSFKGLIYHGANLEDGVPSRFSGSGSGADYSLTISSLESEDFADYYCVQYAQFPYTFGGGTKLEIK
notes: as for B8

Experiments:
human DLL3 on cells [1] = target: T1, human DLL3 on cells (human, UniProt Q9NYJ7 27-618); test: cell-based or functional assay
T1 sequence: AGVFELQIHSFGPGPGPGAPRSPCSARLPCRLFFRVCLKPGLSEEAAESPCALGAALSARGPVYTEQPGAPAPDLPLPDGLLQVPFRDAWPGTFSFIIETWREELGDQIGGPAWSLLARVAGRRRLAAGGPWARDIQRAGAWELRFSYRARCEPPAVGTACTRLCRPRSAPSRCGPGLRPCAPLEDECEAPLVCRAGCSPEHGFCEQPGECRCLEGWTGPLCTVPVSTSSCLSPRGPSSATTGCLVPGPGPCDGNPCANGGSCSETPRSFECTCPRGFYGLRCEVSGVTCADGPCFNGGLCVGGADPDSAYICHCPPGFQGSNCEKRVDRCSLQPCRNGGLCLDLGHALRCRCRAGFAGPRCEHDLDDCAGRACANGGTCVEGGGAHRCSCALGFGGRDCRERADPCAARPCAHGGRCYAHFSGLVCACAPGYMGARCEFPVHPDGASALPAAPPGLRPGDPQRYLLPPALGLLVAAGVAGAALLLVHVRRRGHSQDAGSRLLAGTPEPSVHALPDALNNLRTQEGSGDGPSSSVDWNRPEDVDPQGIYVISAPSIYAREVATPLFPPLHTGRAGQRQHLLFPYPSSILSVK

hTSLP = hTSLP (human, UniProt Q969D9 29-159); test: ELISA
hIL5 = hIL5 (human, UniProt P05113 20-134); test: ELISA
[2] = target: T2, monkey DLL3 protein (screening antigen) (cynomolgus monkey, UniProt Q9NYJ7 27-492 (human entry), limits assumed); test: ELISA, hybridoma supernatant
T2 chain: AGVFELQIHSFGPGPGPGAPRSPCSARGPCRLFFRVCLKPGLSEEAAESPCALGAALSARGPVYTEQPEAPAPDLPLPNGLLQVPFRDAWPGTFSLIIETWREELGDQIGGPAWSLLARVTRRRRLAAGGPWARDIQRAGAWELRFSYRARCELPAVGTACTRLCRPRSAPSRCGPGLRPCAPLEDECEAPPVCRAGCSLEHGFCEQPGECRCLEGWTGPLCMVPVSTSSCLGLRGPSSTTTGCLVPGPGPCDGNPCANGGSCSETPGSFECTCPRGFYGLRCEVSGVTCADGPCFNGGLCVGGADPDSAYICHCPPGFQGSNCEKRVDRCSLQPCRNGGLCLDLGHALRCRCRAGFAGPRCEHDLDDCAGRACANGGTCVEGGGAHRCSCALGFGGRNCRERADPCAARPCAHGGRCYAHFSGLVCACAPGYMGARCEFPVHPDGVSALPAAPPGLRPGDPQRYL
Description: (§1) Spleen lymphocytes and the myeloma cells, Sp2/0 cells (ATCC® CRL-8287™), were fused by following an optimized electrofusion procedure to obtain hybridoma cells. Based on the growth density of hybridoma cells, the hybridoma culture supernatant was assayed using an ELISA method with binding to DLL3 protein and a FACS method with binding to DLL3 CHO-s cells.

[3] = target: T3, human DLL3 protein (screening antigen) (human, UniProt Q9NYJ7 27-492, limits assumed); test: ELISA, hybridoma supernatant
T3 construct: Biotinylated in the phage panning
T3 sequence: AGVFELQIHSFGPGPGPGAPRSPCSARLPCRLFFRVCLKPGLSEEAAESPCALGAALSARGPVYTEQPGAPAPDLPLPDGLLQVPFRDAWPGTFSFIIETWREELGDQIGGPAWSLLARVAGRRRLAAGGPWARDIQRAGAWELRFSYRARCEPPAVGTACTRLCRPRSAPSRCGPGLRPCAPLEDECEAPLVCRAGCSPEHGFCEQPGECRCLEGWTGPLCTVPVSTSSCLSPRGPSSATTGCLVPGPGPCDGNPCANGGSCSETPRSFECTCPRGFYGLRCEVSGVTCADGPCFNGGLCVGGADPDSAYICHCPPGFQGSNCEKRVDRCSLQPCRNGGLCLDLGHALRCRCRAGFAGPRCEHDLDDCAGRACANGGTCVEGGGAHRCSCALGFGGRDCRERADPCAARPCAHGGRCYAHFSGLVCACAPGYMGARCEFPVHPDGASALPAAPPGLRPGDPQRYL
Description: as §1

human DLL3 on cells [4] = target: T1, human DLL3 on cells; test: FACS, DLL3 CHO-s cells, hybridoma supernatant
Description: as §1

Binder | EC50 (hTSLP) | EC50 (hIL5) | binding result [2] | other results
B1 |  |  |  | IC50, PBMC killing of SHP77/lucG cells (human DLL3 on cells [1]): 0.0446 nM; Imax (%), PBMC killing of SHP77/lucG cells (human DLL3 on cells [1]): 97%
B2 | 2.88 nM | 37 nM |  | 
B3 | 3 nM | 9.46 nM |  | 
B4 | 3.18 nM | 10.9 nM |  | 
B5 | 3.33 nM | 18.7 nM |  | 
B6 | 2.18 nM | 17.7 nM |  | 
B7 | 3.17 nM | 20.8 nM |  | 
B8 |  |  | binds | 
B9 |  |  | binds | binding result [3]: binds; binding result (human DLL3 on cells [4]): binds
B10 |  |  | binds | 

Source: patent publication US20250376519A1 (JIANGSU HENGRUI PHARMACEUTICALS, published 2025)
